Measured values published in publication PMC3679926.

Columns and labels:
[1] = molecular target: T1, p53 (rp53) (UniProt P04637 1-393); assay: competition
[2] = molecular target: T1, p53 (rp53); assay: EMSA

T1 sequence (P04637 whole entry): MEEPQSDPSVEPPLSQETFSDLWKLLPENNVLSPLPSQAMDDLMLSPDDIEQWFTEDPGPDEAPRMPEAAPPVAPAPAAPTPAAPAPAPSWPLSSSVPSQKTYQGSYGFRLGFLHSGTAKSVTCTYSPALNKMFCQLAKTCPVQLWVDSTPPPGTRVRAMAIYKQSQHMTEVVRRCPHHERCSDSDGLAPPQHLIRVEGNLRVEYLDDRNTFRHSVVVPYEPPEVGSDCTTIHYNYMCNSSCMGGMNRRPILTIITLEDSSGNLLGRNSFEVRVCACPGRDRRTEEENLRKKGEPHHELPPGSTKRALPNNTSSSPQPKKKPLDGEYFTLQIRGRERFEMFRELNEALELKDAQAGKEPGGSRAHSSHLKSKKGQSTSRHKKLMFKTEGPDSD

B1: p53RE wt, unlabeled competitor (dsDNA)
DNA 1: ACTGAGCCATGGGCATGTCTGAACACAACA
DNA 2: TGTTGTGTTCAGACATGCCCATGGCTCAGT
[1]
  binding result: binds

B2: p53RE MUT (dsDNA)
DNA 1: ACTGAGCCATCCCGGCCGGCGAACACAACA
DNA 2: TGTTGTGTTCGCCGGCCGGGATGGCTCAGT
[2]
  binding result: no binding

B3: p53RE wt (miR-205 upstream p53BS) (dsDNA)
DNA 1: ACTGAGCCATGGGCATGTCTGAACACAACA
DNA 2: TGTTGTGTTCAGACATGCCCATGGCTCAGT
[2]
  binding result: binds
